Results on 17 molecules are retold here after patent publication US20100322946A1 (Genentech, published 2010).

Changes are numbered by the printed parent chain. Values joined by “and” are separate entries in the source; they are usually repeats but may differ in a detail not shown here. Identical values can stand only once. Like-named read-outs stand apart in the source and are kept apart here.

The target in assay [1] is T1, murine VEGF (form not stated) (mouse, UniProt Q00731-2 27-190).
T1 construct: also called mVEGF
T1 sequence (looked up): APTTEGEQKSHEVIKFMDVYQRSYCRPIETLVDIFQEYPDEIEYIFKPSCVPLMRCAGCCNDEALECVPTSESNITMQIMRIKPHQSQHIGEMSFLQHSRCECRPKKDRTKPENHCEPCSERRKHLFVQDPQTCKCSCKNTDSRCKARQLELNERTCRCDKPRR
The assay is described as follows: BIAcore SPR, mVEGF108.

The target in assay [2] is T2, HER2 extracellular domain (human, UniProt P04626 23-652).
T2 construct: extracellular domain; also called HER2-ECD; Her2-ECD
Kind of assay: BIAcore SPR.

The target in assay [3] is T3, hVEGF-C (human, UniProt P49767 103-227).
T3 construct: also called vascular endothelial growth factor C
T3 sequence (looked up): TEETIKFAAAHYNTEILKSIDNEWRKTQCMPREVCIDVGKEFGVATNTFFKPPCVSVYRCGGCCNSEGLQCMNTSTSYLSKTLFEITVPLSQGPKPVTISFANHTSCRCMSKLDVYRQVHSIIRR
Kind of assay: ELISA. Background: ELISA stands for enzyme-linked immunosorbent assay.

For assay [4], the target named is T4, hVEGF-D (human, UniProt O43915 93-201).
T4 construct: also called vascular endothelial growth factor D
T4 sequence (looked up): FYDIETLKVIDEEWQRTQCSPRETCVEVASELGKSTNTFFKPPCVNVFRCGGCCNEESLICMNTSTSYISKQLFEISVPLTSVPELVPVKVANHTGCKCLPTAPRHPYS
The assay is described as follows: ELISA.

Assay [5] concerns the target T5, epidermal growth factor receptor extracellular domain (human, UniProt P00533 25-645).
T5 construct: extracellular domain; also called hEGFR
Kind of assay: ELISA: antigen immobilized, hIgG 15 µg/mL, OD450; bars assigned by their left-to-right order.

The target of another assay is T6, human death receptor 5 (human, UniProt O14763 56-210).
T6 construct: also called hDR5; DR5
Described as above.

The target in another assay is T7, bovine serum albumin (bovine, UniProt P02769 25-607).
T7 construct: also called BSA
The description is as above.

Assay [6] concerns the target T8, human VEGF109 (human, UniProt P15692 214-315, limits assumed).
T8 construct: also called hVEGF109
T8 sequence (looked up): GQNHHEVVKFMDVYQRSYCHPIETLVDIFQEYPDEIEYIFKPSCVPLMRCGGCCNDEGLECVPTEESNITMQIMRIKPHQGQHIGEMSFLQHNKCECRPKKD
Kind of assay: BIAcore SPR. In general terms: In SPR one partner is held on a chip, and binding of the other changes the refractive index at the surface.

In assay [7] the target is T9, human VEGF (form not stated) (human, UniProt P15692-4 27-191).
T9 construct: also called hVEGF; hVEGF-A
The assay is described as follows: competitive phage ELISA.

Assay [8] has as its target T9, human VEGF (form not stated). The assay is described as follows: competitive phage ELISA. The source holds these as a separate data set.
Assay [9] has as its target T2, HER2 extracellular domain. The assay is described as follows: competition ELISA of phage-displayed Fab.
Assay [10] has as its target T10, VEGF109 (receptor-binding domain of human VEGF, residues 8-109) (human, UniProt P15692 214-315).
T10 construct: also called hVEGF109
T10 sequence (looked up): T8 sequence (looked up)
Kind of assay: calculated from ΔCp.

In assay [11] the target is T10, VEGF109 (receptor-binding domain of …). Kind of assay: calculated from ΔStot, ΔSdesolv and ΔSrt.
For assay [12] the target is unchanged. Kind of assay: isothermal titration calorimetry.
Assay [13] shares this target. The assay is described as follows: calculated from the SPR KD.
For a further assay, the target named is T11, HER3 ECD.
T11 construct: also called ErbB3/HER3 extracellular domain
The assay is described as follows: ELISA: antigen immobilized, hIgG 15 µg/mL, OD450; bars assigned by their left-to-right order.

Assay [14] concerns the target T3, hVEGF-C. The description is as above.
The target in assay [15] is T4, hVEGF-D. Described as above.
For assay [16], the target named is T8, human VEGF109. Kind of assay: SPR, captured IgG, antigen in solution, 30°C.
For assay [17], the target named is T2, HER2 extracellular domain. The assay is described as follows: Her2 in solution (varied) against DR5 coat.
The target of assay [18] is T8, human VEGF109. Kind of assay: BIAcore SPR, steady state analysis.
The target of assay [19] is T2, HER2 extracellular domain. The assay is described as follows: competitive phage ELISA.
Assay [20] concerns the target T9, human VEGF (form not stated). The assay is described as follows: competitive phage ELISA. This is another data set of the same source.

As usually defined, the Kd is the free concentration of one partner at which half of the binding sites on the other are occupied at equilibrium, for simple one-to-one binding. A lower Kd goes with higher affinity. As a reminder, the koff is a measure of how fast the partners let go of each other. Higher therefore signals fast dissociation. As usually defined, the kon is a measure of how fast the partners come together. A low value points to slower complex formation. In general, IC50 refers to the concentration that inhibits the measured activity by half.

B1: 3-1 (Table 2) (Fab, V domains shown)
VH: not shown
VL: DIQMTQSPSSLSASVGDRVTITCRASQNVWDWVAWYQQKPGKAPKLLIYPASSLYSGVPSRFSGSGSGTDFTLTISSLQPEDFATYYCQQGWYIAPPTFGQGTKVEIKR
notes: also called 3-1 Fab
In assay [1], B1 had a Kd of 105 nM and an off-rate constant (koff) of 0.0036 s⁻¹. Also, the binding result in assay [2] is given as “no binding”.

B2: 3-1 hIgG (antibody, V domains shown)
VH: not shown
VL: B1 VL
notes: also called 3-1 IgG; not shown: rest of the human IgG heavy-chain constant region
In the case of B2, the binding result with hVEGF-C [3] is recorded as “no binding”; with hVEGF-D [4], “no binding”; in assay [2], “no binding”; in assay [5], “no binding (tested: 15 µg/mL)”; in the assay with human death receptor 5 it was “no binding (tested: 15 µg/mL)”; with bovine serum albumin, “no binding (tested: 15 µg/mL)”. The molecule further came in with a Kd in assay [1] of 44 nM. Also, in assay [1], the dissociation rate constant (koff) stood at 0.016 s⁻¹.

B3: 3_7 Fab (Fab, V domains shown)
VH: not shown
VL: DIQMTQSPSSLSASVGDRVTITCRASQYIWRYVAWYQQKPGKAPKLLIYWGSSLYSGVPSRFSGSGSGTDFTLTISSLQPEDFATYYCQQGLWYSPPTFGQGTKVEIK
In assay [1], B3 gave a Kd of 78 nM, a koff of 0.0056 s⁻¹ and a kon of 72000 M⁻¹ s⁻¹. In the assay with human VEGF109 [6], this molecule came in with a dissociation constant Kd of 3 nM, a koff of 0.0025 s⁻¹ and a kon of 800000 M⁻¹ s⁻¹.

B4: H7 (scFv, V domains shown)
VH: not shown
VL: B3 VL with Y28N, I29V, R31D, Y32W, W50P, G51A, L92W, W93Y, Y94I, S95A
notes: not shown: scFv linker carrying the gD tag and the phage coat fusion
In assay [7], B4 returned an IC50 of 60 nM. This counts as double-digit nanomolar.

B5: 3-7 hIgG (antibody, V domains shown)
VH: not shown
VL: B3 VL
notes: also called 3-7 anti-hVEGF
B5: in assay [1], the equilibrium dissociation constant (Kd) is 30 nM, the off-rate constant (koff) came out at 0.015 s⁻¹ and the kon is 500000 M⁻¹ s⁻¹. Also, in the assay with human VEGF109 [6], binding was put at a Kd of 7 nM, the koff was 0.0042 s⁻¹ and the association rate constant (kon) came to 580000 M⁻¹ s⁻¹.

B6: 3-4 (phage) (scFv, V domains shown, not shown: large carriers; small tags and cut ends)
VH: not shown
VL: B3 VL with Y28E, I29V, W30Y, R31S, W50P, G51A, L92F, Y94I, S95G
notes: also called c3-4
For B6, the IC50 in [8] was 32 nM.

B7: 3-7 (phage) (scFv, V domains shown, not shown: large carriers; small tags and cut ends)
VH: not shown
VL: B3 VL
B7 registered an IC50 in assay [8] of 16 nM. This IC50 is about 2-fold lower than that of the molecule before.

B8: 20.49 (Fab, V domains shown)
VH: not shown
VL: DIQMTQSPSSLSASVGDRVTITCRASVDLPKSVSGYVAWYQQKPGKAPKLLIYWGSFLYSGVPSRFSGSGSGTDFTLTISSLQPEDFATYYCQQHFTSPPTFGQGTKVEIKR
For B8, the IC50 in [9] is 2.6 nM.

B9: bH1-44 Fab (Fab, V domains shown)
VH: EVQLVESGGGLVQPGGSLRLSCAASGFNISGTYIHWVRQAPGKGLEWVARIYPSEGYTRYADSVKGRFTISADTSKNTAYLQMNSLRAEDTAVYYCSRWVGVGFYAMDYWGQGTLVTVSS
VL: B8 VL with V27Q, D28N, L29I, P30A, S32T, V33I, F96Y, T97S
notes: also called bH-44
B9: the ΔSdesolv in [10] is 9.6e-05 kcal/mol. For the same molecule, the ΔSconf in [11] is -7.2e-05 kcal/mol. The molecule further displayed a ΔH in assay [12] of -7.1 kcal/mol. The ΔG in assay [13] was -11.8 kcal/mol.

B10: 35.95 (Fab, V domains shown)
VH: not shown
VL: B8 VL with S26I, V27E, D28N, F96Y
The molecule B10 displayed a 50% inhibitory concentration (IC50) in assay [9] of 4.3 nM.

B11: 20.80 (Fab, V domains shown)
VH: not shown
VL: B8 VL with V27E, L29I, V33I, T97S
B11 returned an IC50 in assay [9] of 2.2 nM.

B12: 35.45 (Fab, V domains shown)
VH: not shown
VL: B8 VL with V27E, L29I, S32T, T97S
As to B12, the half-maximal inhibitory concentration (IC50) in [9] is 1.1 nM.

B13: bH1-81 IgG (bispecific antibody, V domains shown)
VH: not shown
VL: B8 VL with V27Q, D28N, L29I, P30A, S32T, V33I, F96Y, T97S
notes: also called bH1-81 antibody; not shown: rest of the human IgG heavy-chain constant region
With B13, the binding result (in [5]; with HER3 ECD; in the assay with hVEGF-C [14]; with human death receptor 5; with bovine serum albumin; with hVEGF-D [15]) was “no binding (tested: 15 µg/mL)” each time. In the assay with human VEGF109 [16], this molecule yielded a dissociation constant Kd of 41 nM.

B14: 35.74 (Fab, V domains shown)
VH: not shown
VL: DIQMTQSPSSLSASVGDRVTITCRAIQDIPKTITGYVAWYQQKPGKAPKLLIYWGSFLYSGVPSRFSGSGSGTDFTLTISSLQPEDFATYYCQQHFNSPPKFGQGTKVEIK
The molecule B14 gave a concentration for half-maximal inhibition (IC50) in [9] of 0.7 nM.

B15: D1 hIgG (bispecific antibody, V domains shown)
VH: not shown
VL: DIQMTQSPSSLSASVGDRVTITCRASQNVSKHVAWYQQKPGKAPKLLIYWGSYLYSGVPSRFSGSGSGTDFTLTISSLQPEDFATYYCQQSYSGPPTFGQGTKVEIK
notes: also called D1 (anti-hDR5/Her2)
For the molecule B15, the “IC50 (read off the curve)” value in [17] was around 50 nM.

B16: H4_N (bispecific antibody, V domains shown)
VH: not shown
VL: DIQMTQSPSSLSASVGDRVTITCRASQNIRSGSVAWYQQKPGKAPKLLIYWASYLYSGVPSRFSGSGSGTDFTLTISSLQPEDFATYYCQQHYTTPPTFGQGTKVEIK
notes: also called H4_N hIgG; H4_N Fab
B16: the Kd with human VEGF109 [18] is 550 nM. Further, in assay [2], the dissociation constant Kd is 9.87 nM and 6 nM; the off-rate (koff) is 0.0013 s⁻¹; the on-rate (kon) is 140000 M⁻¹ s⁻¹ and 230000 M⁻¹ s⁻¹.

B17: H4 (phage) (scFv, V domains shown)
VH: not shown
VL: B16 VL with S31T, A52G
Take B17: the results for the half-inhibitory concentration (IC50) in assay [19] and in assay [20] were 0.54 nM and 115 nM, respectively.
